Assay results as given in paper PMC314469, “Protein Interaction Networks by Proteome Peptide Scanning” (PLoS Biology, 2004).

T1: Boi2 SH3 (BOI2_YEAST), P39969
T1 chain: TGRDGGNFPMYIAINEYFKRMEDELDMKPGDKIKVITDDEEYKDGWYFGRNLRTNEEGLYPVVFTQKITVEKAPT

T2: Myo5 SH3 (MYO5_YEAST), Q04439
T2 chain: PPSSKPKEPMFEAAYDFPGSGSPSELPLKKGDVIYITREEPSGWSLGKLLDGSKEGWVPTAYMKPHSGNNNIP

T3: Boi1 SH3 (BOI1_YEAST), P38041
T3 chain: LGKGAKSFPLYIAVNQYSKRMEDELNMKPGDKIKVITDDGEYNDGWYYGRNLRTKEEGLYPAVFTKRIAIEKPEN

T4: Rvs167 SH3 (RV167_YEAST), P39743
T4 chain: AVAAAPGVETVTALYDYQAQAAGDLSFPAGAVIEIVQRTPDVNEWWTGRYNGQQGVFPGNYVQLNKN

T5: Yhr016c SH3 (YSC84_YEAST), P32793
T5 chain: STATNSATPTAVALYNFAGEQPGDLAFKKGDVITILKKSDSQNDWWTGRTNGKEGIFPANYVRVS

T6: Yfr024 SH3 (LSB3_YEAST), P43603
T6 chain: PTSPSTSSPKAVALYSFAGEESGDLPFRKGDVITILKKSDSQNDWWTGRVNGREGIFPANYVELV


What was measured:
Assay in all cases: SPOT array
[1] = molecular target: T1, Boi2 SH3 (BOI2_YEAST), P39969
[2] = molecular target: T2, Myo5 SH3 (MYO5_YEAST), Q04439
[3] = molecular target: T3, Boi1 SH3 (BOI1_YEAST), P38041
[4] = molecular target: T4, Rvs167 SH3 (RV167_YEAST), P39743
[5] = molecular target: T5, Yhr016c SH3 (YSC84_YEAST), P32793
[6] = molecular target: Sho1 SH3 (SHO1_YEAST), P40073
[7] = molecular target: T6, Yfr024 SH3 (LSB3_YEAST), P43603

Sho1 SH3 (SHO1_YEAST), P40073, sequence (P40073 295-366): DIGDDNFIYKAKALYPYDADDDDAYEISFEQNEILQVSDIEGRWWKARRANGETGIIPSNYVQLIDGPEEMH

Binder | normalised SPOT signal, Boehringer light units (BLU); mean over the file's lines of this peptide [1] | normalised SPOT signal, Boehringer light units (BLU); mean over the file's lines of this peptide [2] | normalised SPOT signal, Boehringer light units (BLU); mean over the file's lines of this peptide [3] | normalised SPOT signal, Boehringer light units (BLU); mean over the file's lines of this peptide [4] | normalised SPOT signal, Boehringer light units (BLU); mean over the file's lines of this peptide [5] | normalised SPOT signal, Boehringer light units (BLU); mean over the file's lines of this peptide [6] | normalised SPOT signal, Boehringer light units (BLU); mean over the file's lines of this peptide [7]
KKHDKLHPNYPSVK [YPL019C 129-142] | 33.3 | 407 | 674 | 415 | 12.6 | 72.4 | 164
KIVRRDYPSTPVIV [YOR019W 147-160] | 3.2 | 366 | 235 | 206 | 17.5 | 33.5 | 267
KKIIKDVPGTPSDK [YLR079W 164-177] | 5.6 | 163 | 3810 | 65.3 | 20 | 155 | 16.7
KITKKLGPKLPKAS [YNL297C 1291-1304] | 21 | 681 | 198 | 187 | 43.5 | 47.2 | 490
KFFKREYPDIPMIA [YMR190C 828-841] | 20.2 | 155 | 201 | 127 | 42.3 | 359 | 120
KDKARGNPEKPPYW [YJL036W 14-27] | 15.2 | 59.9 | 247 | 67.1 | 19.5 | 50.3 | 63.5
KFDAKGRPIPPHPD [YJL042W 327-340] | 3.5 | 53.5 | 460 | 58.6 | 39.4 | 27.1 | 224
KEFFRLTPNQPVGL [YOR168W 628-641] | -0 | 43.8 | 136 | 175 | 14.9 | 25.9 | 166

Second part, the binder after the results:

normalised SPOT signal, Boehringer light units (BLU); mean over the file's lines of this peptide [1] | normalised SPOT signal, Boehringer light units (BLU); mean over the file's lines of this peptide [2] | normalised SPOT signal, Boehringer light units (BLU); mean over the file's lines of this peptide [3] | normalised SPOT signal, Boehringer light units (BLU); mean over the file's lines of this peptide [4] | normalised SPOT signal, Boehringer light units (BLU); mean over the file's lines of this peptide [5] | normalised SPOT signal, Boehringer light units (BLU); mean over the file's lines of this peptide [6] | normalised SPOT signal, Boehringer light units (BLU); mean over the file's lines of this peptide [7] | Binder
1 | 720 | 779 | 147 | 89.5 | 103 | 190 | KKIAKGDPKIPMQN [YNL155W 157-170]
0.6 | 242 | 389 | 176 | 12.1 | 1230 | 191 | KIIKKSSPSVPKEE [YNL265C 154-167]
2.4 | 164 | 102 | 32.3 | 18.9 | 50.6 | 0 | KDEVKLHPPEPKDL [YIL009W 251-264]
53.8 | 143 | 76.6 | 63.7 | 59.1 | 42 | 0 | KDFSKNAPYNPSEV [YPR022C 111-124]
36.2 | 726 | 442 | 30.5 | 26.8 | 21.3 | 19.7 | KHEPKKSPTTPALA [YDL220C 702-715]
4.7 | 138 | 74.9 | 102 | 20.3 | 14.8 | 93.1 | KIVERGPPYPPDLR [YDR464W 649-662]
14 | 117 | 251 | 38.3 | 134 | 78.4 | 1160 | KGVLKEYPMRPYGS [YCR068W 315-328]
16.5 | 340 | 435 | 61.3 | 37.6 | 114 | 184 | KKHDKLYPKYPSVK [YFL004W 130-143]
